Measured values from US7083949.

Tests used:
[1] = biological target: human IL-6 (human) (UniProt P05231); experiment: cell-based or functional assay
[2] = biological target: human IL-6 (human) (UniProt P05231); experiment: 20 pM 125I-IL-6 preincubated with 500 pM mAb B-E8 for 20 hours, chase with 20 nM unlabelled IL-6, Protein G-Sepharose precipitation

Sequence of human IL-6 (human) (P05231 30-212 limits assumed): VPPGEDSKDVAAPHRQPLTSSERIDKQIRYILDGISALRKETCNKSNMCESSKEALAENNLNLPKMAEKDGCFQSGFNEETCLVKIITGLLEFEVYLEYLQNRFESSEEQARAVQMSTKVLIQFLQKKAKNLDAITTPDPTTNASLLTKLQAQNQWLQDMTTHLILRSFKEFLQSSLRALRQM

B1: anti-IL-6 monoclonal neutralizing antibody B-E8 (antibody, from another filing, V domains shown)
VH: QVTLKESGPGILKPSQTLSLTCSFSGFSLSTSGMGVGWIRQPSGKGLEWLAHIWWDDDKYYNPSLKSQLTISKDTSRNQVFLKITSVDTADTATYYCARSYDDYLYYALDYWGQGTSVTVSS
VL: DIVMTQSPATLSVTPGDRVSLSCRASQSISDYLHWYQQKSHESPRLLIKSVSQSISGIPSRFSGSGSGSDFTLSINSVEPEDVGVYYCQNGHSFPLTFGAGTKLELK
inhibition of IL-6-dependent proliferation of XG-1 cells (MTT) (fold molar excess over IL-6) [1]: 10
percent of initial 125I-IL-6 counts still bound after three days [2]: < 5%
